Experimental data published in US20220259294A1.

How the values were obtained:
[1] = molecular target: IHF peptide of H. influenzae (Haemophilus influenzae); assay: Kd at pH 6.5 (Octet biosensor per Example 1)
[2] = molecular target: IHF peptide of H. influenzae (Haemophilus influenzae); assay: Kd at pH 7.5 (Octet biosensor per Example 1)
[3] = molecular target: IHF peptide of H. influenzae (Haemophilus influenzae); assay: Kd at pH 4.5 (Octet biosensor per Example 1)
[4] = molecular target: IHF peptide of H. influenzae (Haemophilus influenzae); assay: Kd at pH 5.5 (Octet biosensor per Example 1)

B1: TRL295 (antibody, V domains shown)
VH: QVQLVESGGGLVQPGGSLRLSCAASGFPFSSYAMSWVRQAPGKGLEWVSAISGNGADSYYADSVKGRFTTSRDKSKNTVYLQMNRLRAEDTAVYYCAKDMRRYHYDSSGLHFWGQGTLVTVSS
VL: DIELTQAPSVSVYPGQTARITCSGDALPKQYAYWYQQKPGQAPVVVIYKDSERPSGISERFSGSSSGTTVTLTISGVQAGDEADYYCQSVDTSVSYYVVFGGGTKLTVL
[1]
  Kd: 2.8 nM
[2]
  Kd: 4.2 nM
[3]
  Kd: 3.7 nM
[4]
  Kd: 2.8 nM
